Values belong to the substance of their own block, whether it stands above or below them.
Legend:
Assay in all cases: bacterial two-hybrid (β-galactosidase activity)
Conditions in all cases: in vivo, E. coli BTH101; T18 and T25 fusions; parent: est. 1400; read off a plot
FleN^A139V = target: FleN^A139V
FleN^L260R = target: FleN^L260R
FleN^R218C = target: FleN^R218C
FleN^V24L = target: FleN^V24L

response (Miller unites) (FleN^A139V): 870
Substance: wild-type FleN A139V

response (Miller unites) (FleN^L260R): 1000
Substance: wild-type FleN L260R

response (Miller unites) (FleN^R218C): 1200
Substance: wild-type FleN R218C

response (Miller unites) (FleN^V24L): 130
Substance: wild-type FleN V24L
